Tests used:
[1] = target: H-subunit of the restriction endonuclease CglI (H.CglI), wild type (Corynebacterium glutamicum); test: SEC + other: SAXS
[2] = target: H.CglI H282A (H/H motif mutant) (Corynebacterium glutamicum); test: SEC
[3] = target: H.CglI H282A + H290A (H/H motif double mutant) (Corynebacterium glutamicum); test: SEC
[4] = target: H.CglI H290A (H/H motif mutant) (Corynebacterium glutamicum); test: SEC
[5] = target: H.CglI L1 (V169A), Loop 163–172 mutant (Corynebacterium glutamicum); test: SEC
[6] = target: H.CglI Q405A (Motif VI mutant) (Corynebacterium glutamicum); test: SEC
[7] = target: H.CglI R379A (Motif V mutant) (Corynebacterium glutamicum); test: SEC
[8] = target: H.CglI R408A (Motif VI mutant) (Corynebacterium glutamicum); test: SEC
[9] = target: H.CglI ΔL (a deletion of the residues 165–172), Loop 163–172 mutant (Corynebacterium glutamicum); test: SEC

## H-subunit of the restriction endonuclease CglI (H.CglI), wild type (natural protein)
[1]
  stoichiometry N: 2

## H.CglI H282A (H/H motif mutant) (natural protein)
[2]
  stoichiometry N: 2

## H.CglI H282A + H290A (H/H motif double mutant) (natural protein)
[3]
  stoichiometry N: 2

## H.CglI H290A (H/H motif mutant) (natural protein)
[4]
  stoichiometry N: 2

## H.CglI L1 (V169A), Loop 163–172 mutant (natural protein)
[5]
  stoichiometry N: 2

## H.CglI Q405A (Motif VI mutant) (natural protein)
[6]
  stoichiometry N: 2

## H.CglI R379A (Motif V mutant) (natural protein)
[7]
  stoichiometry N: 2

## H.CglI R408A (Motif VI mutant) (natural protein)
[8]
  stoichiometry N: 2

## H.CglI ΔL (a deletion of the residues 165–172), Loop 163–172 mutant (natural protein)
[9]
  stoichiometry N: 2

From paper PMC5861437
